Assays:
Assay in all cases: cell-based or functional assay
[1] = target: HIV-1 Env pseudovirus 6240_08_TA5_4622 (HIV-1)
[2] = target: HIV-1 Env pseudovirus ZM135M.PL10a (HIV-1)
[3] = target: HIV-1 Env pseudovirus BF1266.431a (HIV-1)
[4] = target: HIV-1 Env pseudovirus ZM233M.PB6 (HIV-1)
[5] = target: HIV-1 Env pseudovirus Ce1172_H1 (HIV-1)
[6] = target: HIV-1 Env pseudovirus RHPA4259.7 (HIV-1)
[7] = target: HIV-1 Env pseudovirus CAP210.2.00.E8 (HIV-1)
[8] = target: HIV-1 Env pseudovirus 246F C1G (HIV-1)
[9] = target: HIV-1 Env pseudovirus 62357_14_D3_4589 (HIV-1)
[10] = target: HIV-1 Env pseudovirus Q769.d22 (HIV-1)
[11] = target: HIV-1 Env pseudovirus SC05_8C11_2344 (HIV-1)
[12] = target: HIV-1 Env pseudovirus 1054_07_TC4_1499 (HIV-1)
[13] = target: Env of HIV-1 pseudovirus REJO4541.67 (HIV-1)
[14] = target: Env of HIV-1 pseudovirus CNE58 (HIV-1)
[15] = target: Env of HIV-1 pseudovirus Du172.17 (HIV-1)
[16] = target: Env of HIV-1 pseudovirus CAP45.2.00.G3 (HIV-1)
[17] = target: Env of HIV-1 pseudovirus ZM135M.PL10a (HIV-1)
[18] = target: Env of HIV-1 pseudovirus 246F C1G (HIV-1)
[19] = target: Env of HIV-1 pseudovirus Ce1176_A3 (HIV-1)
[20] = target: Env of HIV-1 pseudovirus CNE20 (HIV-1)
[21] = target: Env of HIV-1 pseudovirus Q461.e2 (HIV-1)
[22] = target: Env of HIV-1 pseudovirus CNE21 (HIV-1)
[23] = target: Env of HIV-1 pseudovirus THRO4156.18 (HIV-1)
[24] = target: Env of HIV-1 pseudovirus CNE19 (HIV-1)
[25] = target: Env of HIV-1 pseudovirus 6240_08_TA5_4622 (HIV-1)
[26] = target: Env of HIV-1 pseudovirus 1056_10_TA11_1826 (HIV-1)
[27] = target: Env of HIV-1 pseudovirus HIV-001428-2.42 (HIV-1)
[28] = target: HIV-1 Env pseudovirus C3347.c11 (HIV-1)
[29] = target: HIV-1 Env pseudovirus R2184.c04 (HIV-1)
[30] = target: HIV-1 Env pseudovirus 0815.v3.c3 (HIV-1)
[31] = target: HIV-1 Env pseudovirus 6480.v4.c25 (HIV-1)
[32] = target: HIV-1 Env pseudovirus P1981_C5_3 (HIV-1)
[33] = target: HIV-1 Env pseudovirus P0402_c2_11 (HIV-1)
[34] = target: HIV-1 Env pseudovirus T251-18 (HIV-1)

N49P11 (antibody)
IC50 [1]: 0.72 µg/mL | IC80 [1]: 3 µg/mL | MPI [1]: 100 | IC50 [2]: 3.97 µg/mL | IC80 [2]: 16.6 µg/mL | MPI [2]: 100 | IC50 [3]: 0.998 µg/mL | IC80 [3]: 7.13 µg/mL | MPI [3]: 100 | IC50 [4]: 5.92 µg/mL | IC80 [4]: 18.5 µg/mL | MPI [4]: 100 | IC50 [5]: 3.55 µg/mL | IC80 [5]: 19.2 µg/mL | MPI [5]: 100 | IC50 [6]: 0.202 µg/mL | IC80 [6]: 0.956 µg/mL | MPI [6]: 100 | IC50 [7]: 5.12 µg/mL | IC80 [7]: 19.4 µg/mL | MPI [7]: 100 | IC50 [8]: 8.48 µg/mL | IC80 [8]: 20.9 µg/mL | MPI [8]: 100 | IC50 [9]: 0.599 µg/mL | IC80 [9]: 3.56 µg/mL | MPI [9]: 100 | IC50 [10]: 0.048 µg/mL | IC80 [10]: 0.308 µg/mL | MPI [10]: 100 | IC50 [11]: 5.42 µg/mL | IC80 [11]: 20.5 µg/mL | MPI [11]: 100 | IC50 [12]: 2.92 µg/mL | IC80 [12]: 13.1 µg/mL | MPI [12]: 100

10E8 (antibody)
IC50 [13]: 0.203 µg/mL | IC80 [13]: 1.69 µg/mL | IC50 [14]: 1.29 µg/mL | IC80 [14]: 8.27 µg/mL | IC50 [15]: 0.109 µg/mL | IC80 [15]: 0.837 µg/mL | IC50 [16]: 1.82 µg/mL | IC80 [16]: > 10 µg/mL | IC50 [17]: 0.171 µg/mL | IC80 [17]: 1.19 µg/mL | IC50 [18]: 2.22 µg/mL | IC80 [18]: 9.94 µg/mL | IC50 [19]: 0.867 µg/mL | IC80 [19]: 3.92 µg/mL | IC50 [20]: 1.25 µg/mL | IC80 [20]: 6.58 µg/mL | IC50 [21]: 2.11 µg/mL | IC80 [21]: > 10 µg/mL | IC50 [22]: 1.9 µg/mL | IC80 [22]: > 10 µg/mL | IC50 [23]: 0.156 µg/mL | IC80 [23]: 0.884 µg/mL | IC50 [24]: 0.666 µg/mL | IC80 [24]: 6.49 µg/mL | IC50 [25]: 0.756 µg/mL | IC80 [25]: 5.59 µg/mL | IC50 [26]: 0.134 µg/mL | IC80 [26]: 1.03 µg/mL | IC50 [27]: 0.809 µg/mL | IC80 [27]: 7.3 µg/mL

N49P7.2 (antibody)
IC50 [1]: 0.812 µg/mL | IC80 [1]: 2.87 µg/mL | MPI [1]: 100 | IC50 [2]: 0.596 µg/mL | IC80 [2]: 2.8 µg/mL | MPI [2]: 99 | IC50 [3]: 0.029 µg/mL | IC80 [3]: 0.159 µg/mL | MPI [3]: 100 | IC50 [4]: 0.475 µg/mL | IC80 [4]: 2.14 µg/mL | MPI [4]: 99 | IC50 [5]: > 50 µg/mL | IC80 [5]: > 50 µg/mL | MPI [5]: 6 | IC50 [6]: 0.1 µg/mL | IC80 [6]: 0.289 µg/mL | MPI [6]: 100 | IC50 [7]: 3.94 µg/mL | IC80 [7]: 21.7 µg/mL | MPI [7]: 95 | IC50 [8]: 0.049 µg/mL | IC80 [8]: 0.192 µg/mL | MPI [8]: 100 | IC50 [9]: 0.03 µg/mL | IC80 [9]: 0.121 µg/mL | MPI [9]: 100 | IC50 [10]: 0.029 µg/mL | IC80 [10]: 0.14 µg/mL | MPI [10]: 100 | IC50 [11]: 0.326 µg/mL | IC80 [11]: 1.14 µg/mL | MPI [11]: 100 | IC50 [12]: 2.04 µg/mL | IC80 [12]: 10.7 µg/mL | MPI [12]: 99

VRC01 (antibody)
IC50 (Titer in TZM.bl cells) [1]: 0.61 µg/mL | IC80 (Titer in TZM.bl cells) [1]: 1.82 µg/mL | IC50 (Titer in TZM.bl cells) [2]: 0.35 µg/mL | IC80 (Titer in TZM.bl cells) [2]: 2.7 µg/mL | IC50 (Titer in TZM.bl cells) [3]: 0.07 µg/mL | IC80 (Titer in TZM.bl cells) [3]: 0.23 µg/mL | IC50 (Titer in TZM.bl cells) [4]: 2 µg/mL | IC80 (Titer in TZM.bl cells) [4]: 9.3 µg/mL | IC50 (Titer in TZM.bl cells) [28]: 0.17 µg/mL | IC80 (Titer in TZM.bl cells) [28]: 0.58 µg/mL | IC50 (Titer in TZM.bl cells) [5]: > 10 µg/mL | IC80 (Titer in TZM.bl cells) [5]: > 10 µg/mL | IC50 (Titer in TZM.bl cells) [29]: 0.08 µg/mL | IC80 (Titer in TZM.bl cells) [29]: 0.32 µg/mL | IC50 (Titer in TZM.bl cells) [30]: 0.06 µg/mL | IC80 (Titer in TZM.bl cells) [30]: 0.13 µg/mL | IC50 (Titer in TZM.bl cells) [6]: 0.06 µg/mL | IC80 (Titer in TZM.bl cells) [6]: 0.185 µg/mL | IC50 (Titer in TZM.bl cells) [7]: > 50 µg/mL | IC80 (Titer in TZM.bl cells) [7]: > 50 µg/mL | IC50 (Titer in TZM.bl cells) [8]: > 10 µg/mL | IC80 (Titer in TZM.bl cells) [8]: > 10 µg/mL | IC50 (Titer in TZM.bl cells) [9]: 0.96 µg/mL | IC80 (Titer in TZM.bl cells) [9]: 4.68 µg/mL | IC50 (Titer in TZM.bl cells) [31]: 0.04 µg/mL | IC80 (Titer in TZM.bl cells) [31]: 0.09 µg/mL | IC50 (Titer in TZM.bl cells) [32]: 0.46 µg/mL | IC80 (Titer in TZM.bl cells) [32]: 1.26 µg/mL | IC50 (Titer in TZM.bl cells) [10]: 0.08 µg/mL | IC80 (Titer in TZM.bl cells) [10]: 0.29 µg/mL | IC50 (Titer in TZM.bl cells) [11]: 0.64 µg/mL | IC80 (Titer in TZM.bl cells) [11]: 1.91 µg/mL | IC50 (Titer in TZM.bl cells) [33]: 0.21 µg/mL | IC80 (Titer in TZM.bl cells) [33]: 0.59 µg/mL | IC50 (Titer in TZM.bl cells) [12]: 0.71 µg/mL | IC80 (Titer in TZM.bl cells) [12]: 2.85 µg/mL | IC80 (Titer in TZM.bl cells) [34]: 11.2 µg/mL

N49P18.1 (antibody)
IC50 [1]: 35.2 µg/mL | IC80 [1]: > 50 µg/mL | MPI [1]: 60 | IC50 [2]: > 50 µg/mL | IC80 [2]: > 50 µg/mL | MPI [2]: 46 | IC50 [3]: 3.48 µg/mL | IC80 [3]: 20.8 µg/mL | MPI [3]: 93 | IC50 [4]: 38.4 µg/mL | IC80 [4]: > 50 µg/mL | MPI [4]: 57 | IC50 [5]: 46.4 µg/mL | IC80 [5]: > 50 µg/mL | MPI [5]: 52 | IC50 [6]: 4.34 µg/mL | IC80 [6]: 21.4 µg/mL | MPI [6]: 98 | IC50 [7]: > 50 µg/mL | IC80 [7]: > 50 µg/mL | MPI [7]: 11 | IC50 [8]: 3.4 µg/mL | IC80 [8]: 20.2 µg/mL | MPI [8]: 97 | IC50 [9]: 10.4 µg/mL | IC80 [9]: 48 µg/mL | MPI [9]: 82 | IC50 [10]: 4.92 µg/mL | IC80 [10]: 18.3 µg/mL | MPI [10]: 97 | IC50 [11]: 17.3 µg/mL | IC80 [11]: > 50 µg/mL | MPI [11]: 79 | IC50 [12]: > 50 µg/mL | IC80 [12]: > 50 µg/mL | MPI [12]: 0
